Source: publication PMC4095729
pKd: −log10 of the molar value.

Molecular target: biotinylated DAE10 peptide (Aβ1-10 conjugated to biotin at the carboxy-terminus)
Assay: SPR; BIAcore; biotinylated DAE10 peptide (Aβ1-10) immobilised on streptavidin coated chips at low density (4 to 7 RU); whole antibodies injected in triplicate at 100 nM, 30 μl/minute; apparent rate constants, bivalent model, KD corrected for active concentration of antibody

Row | pKd | koff | kon | Substance
1 | 8.74 | 0.000589 s⁻¹ | 343000 M⁻¹ s⁻¹ | Recombinant chimeric 3D6 (IgG1) (antibody)
2 | 8.92 | 0.000412 s⁻¹ | 361000 M⁻¹ s⁻¹ | Murine 3D6 (whole antibody, IgG2b)
